Measured values published in PMC3829318.

Columns and labels:
[1] = activity after preincubation at 30 °C; conditions: glycan lost; control: rKOR1 WT
[2] = anti-KOR1 immunoblot of Sf21 culture medium; conditions: control: rKOR1 WT
[3] = (carboxymethyl)cellulose 4M hydrolysis, reducing sugar assay; conditions: control: rKOR1 WT
[4] = Golgi processing of remaining glycopeptides, LC-ESI-MS, N. benthamiana; conditions: glycan lost; control: wild-type KOR1-Fc-GFP

Row | Protein | stability_or_folding, other: residual activity after 120 min [1] | expression_or_secretion ([2]; glycan lost) | enzymatic_activity, other: specific activity ([3]; glycan lost) | localisation_or_trafficking [4] | expression_or_secretion ([2]; glycan changed form) | enzymatic_activity, other: specific activity ([3]; glycan changed form)
1 | KORRIGAN1 (KOR1): N345Q (protein) parent chain: MYGRDPWGGPLEINTADSATDDDRSRNLNDLDRAALSRPLDETQQSWLLGPTEQKKKKYVDLGCIIVSRKIFVWTVGTLVAAALLAGFITLIVKTVPRHHPKTPPPDNYTIALHKALKFFNAQKSGKLPKHNNVSWRGNSGLQDGKGETGSFYKDLVGGYYDAGDAIKFNFPMAYAMTMLSWSVIEYSAKYEAAGELTHVKELIKWGTDYFLKTFNSTADSIDDLVSQVGSGNTDDGNTDPNDHYCWMRPEDMDYKRPVTTCNGGCSDLAAEMAAALASASIVFKDNKEYSKKLVHGAKVVYQFGRTRRGRYSAGTAESSKFYNSSMYWDEFIWGGAWMYYATGNVTYLNLITQPTMAKHAGAFWGGPYYGVFSWDNKLAGAQLLLSRLRLFLSPGYPYEEILRTFHNQTSIVMCSYLPIFNKFNRTNGGLIELNHGAPQPLQYSVNAAFLATLYSDYLDAADTPGWYCGPNFYSTSVLRDFARSQIDYILGKNPRKMSYVVGFGTKYPRHVHHRGASIPKNKVKYNCKGGWKWRDSKKPNPNTIEGAMVAGPDKRDGYRDVRMNYNYTEPTLAGNAGLVAALVALSGEEEATGKIDKNTIFSAVPPLFPTPPPPPAPWKP | no change, at least 90 vs at least 90 | no change | decreases, 271 ± 25 vs 374 ± 18 | no change | – | –
2 | KORRIGAN1 (KOR1): N567Q (protein) parent chain: MYGRDPWGGPLEINTADSATDDDRSRNLNDLDRAALSRPLDETQQSWLLGPTEQKKKKYVDLGCIIVSRKIFVWTVGTLVAAALLAGFITLIVKTVPRHHPKTPPPDNYTIALHKALKFFNAQKSGKLPKHNNVSWRGNSGLQDGKGETGSFYKDLVGGYYDAGDAIKFNFPMAYAMTMLSWSVIEYSAKYEAAGELTHVKELIKWGTDYFLKTFNSTADSIDDLVSQVGSGNTDDGNTDPNDHYCWMRPEDMDYKRPVTTCNGGCSDLAAEMAAALASASIVFKDNKEYSKKLVHGAKVVYQFGRTRRGRYSAGTAESSKFYNSSMYWDEFIWGGAWMYYATGNVTYLNLITQPTMAKHAGAFWGGPYYGVFSWDNKLAGAQLLLSRLRLFLSPGYPYEEILRTFHNQTSIVMCSYLPIFNKFNRTNGGLIELNHGAPQPLQYSVNAAFLATLYSDYLDAADTPGWYCGPNFYSTSVLRDFARSQIDYILGKNPRKMSYVVGFGTKYPRHVHHRGASIPKNKVKYNCKGGWKWRDSKKPNPNTIEGAMVAGPDKRDGYRDVRMNYNYTEPTLAGNAGLVAALVALSGEEEATGKIDKNTIFSAVPPLFPTPPPPPAPWKP | no change, at least 90 vs at least 90 | decreases | – | no change | – | –
3 | KORRIGAN1 (KOR1): N408Q (protein) parent chain: MYGRDPWGGPLEINTADSATDDDRSRNLNDLDRAALSRPLDETQQSWLLGPTEQKKKKYVDLGCIIVSRKIFVWTVGTLVAAALLAGFITLIVKTVPRHHPKTPPPDNYTIALHKALKFFNAQKSGKLPKHNNVSWRGNSGLQDGKGETGSFYKDLVGGYYDAGDAIKFNFPMAYAMTMLSWSVIEYSAKYEAAGELTHVKELIKWGTDYFLKTFNSTADSIDDLVSQVGSGNTDDGNTDPNDHYCWMRPEDMDYKRPVTTCNGGCSDLAAEMAAALASASIVFKDNKEYSKKLVHGAKVVYQFGRTRRGRYSAGTAESSKFYNSSMYWDEFIWGGAWMYYATGNVTYLNLITQPTMAKHAGAFWGGPYYGVFSWDNKLAGAQLLLSRLRLFLSPGYPYEEILRTFHNQTSIVMCSYLPIFNKFNRTNGGLIELNHGAPQPLQYSVNAAFLATLYSDYLDAADTPGWYCGPNFYSTSVLRDFARSQIDYILGKNPRKMSYVVGFGTKYPRHVHHRGASIPKNKVKYNCKGGWKWRDSKKPNPNTIEGAMVAGPDKRDGYRDVRMNYNYTEPTLAGNAGLVAALVALSGEEEATGKIDKNTIFSAVPPLFPTPPPPPAPWKP | no change, at least 90 vs at least 90 | no change | no change, 379 ± 18 vs 374 ± 18 | no change | – | –
4 | KORRIGAN1 (KOR1): N216Q (protein) parent chain: MYGRDPWGGPLEINTADSATDDDRSRNLNDLDRAALSRPLDETQQSWLLGPTEQKKKKYVDLGCIIVSRKIFVWTVGTLVAAALLAGFITLIVKTVPRHHPKTPPPDNYTIALHKALKFFNAQKSGKLPKHNNVSWRGNSGLQDGKGETGSFYKDLVGGYYDAGDAIKFNFPMAYAMTMLSWSVIEYSAKYEAAGELTHVKELIKWGTDYFLKTFNSTADSIDDLVSQVGSGNTDDGNTDPNDHYCWMRPEDMDYKRPVTTCNGGCSDLAAEMAAALASASIVFKDNKEYSKKLVHGAKVVYQFGRTRRGRYSAGTAESSKFYNSSMYWDEFIWGGAWMYYATGNVTYLNLITQPTMAKHAGAFWGGPYYGVFSWDNKLAGAQLLLSRLRLFLSPGYPYEEILRTFHNQTSIVMCSYLPIFNKFNRTNGGLIELNHGAPQPLQYSVNAAFLATLYSDYLDAADTPGWYCGPNFYSTSVLRDFARSQIDYILGKNPRKMSYVVGFGTKYPRHVHHRGASIPKNKVKYNCKGGWKWRDSKKPNPNTIEGAMVAGPDKRDGYRDVRMNYNYTEPTLAGNAGLVAALVALSGEEEATGKIDKNTIFSAVPPLFPTPPPPPAPWKP | no change, at least 90 vs at least 90 | no change | decreases, 244 ± 25 vs 374 ± 18 | no change | – | –
5 | KORRIGAN1 (KOR1): kifunensine (rKOR1 KIF) (protein) parent chain: MYGRDPWGGPLEINTADSATDDDRSRNLNDLDRAALSRPLDETQQSWLLGPTEQKKKKYVDLGCIIVSRKIFVWTVGTLVAAALLAGFITLIVKTVPRHHPKTPPPDNYTIALHKALKFFNAQKSGKLPKHNNVSWRGNSGLQDGKGETGSFYKDLVGGYYDAGDAIKFNFPMAYAMTMLSWSVIEYSAKYEAAGELTHVKELIKWGTDYFLKTFNSTADSIDDLVSQVGSGNTDDGNTDPNDHYCWMRPEDMDYKRPVTTCNGGCSDLAAEMAAALASASIVFKDNKEYSKKLVHGAKVVYQFGRTRRGRYSAGTAESSKFYNSSMYWDEFIWGGAWMYYATGNVTYLNLITQPTMAKHAGAFWGGPYYGVFSWDNKLAGAQLLLSRLRLFLSPGYPYEEILRTFHNQTSIVMCSYLPIFNKFNRTNGGLIELNHGAPQPLQYSVNAAFLATLYSDYLDAADTPGWYCGPNFYSTSVLRDFARSQIDYILGKNPRKMSYVVGFGTKYPRHVHHRGASIPKNKVKYNCKGGWKWRDSKKPNPNTIEGAMVAGPDKRDGYRDVRMNYNYTEPTLAGNAGLVAALVALSGEEEATGKIDKNTIFSAVPPLFPTPPPPPAPWKP | – | – | – | – | no change | no change, 402 ± 40 vs 374 ± 18
6 | KORRIGAN1 (KOR1): N216Q/N324Q/N345Q (protein) parent chain: MYGRDPWGGPLEINTADSATDDDRSRNLNDLDRAALSRPLDETQQSWLLGPTEQKKKKYVDLGCIIVSRKIFVWTVGTLVAAALLAGFITLIVKTVPRHHPKTPPPDNYTIALHKALKFFNAQKSGKLPKHNNVSWRGNSGLQDGKGETGSFYKDLVGGYYDAGDAIKFNFPMAYAMTMLSWSVIEYSAKYEAAGELTHVKELIKWGTDYFLKTFNSTADSIDDLVSQVGSGNTDDGNTDPNDHYCWMRPEDMDYKRPVTTCNGGCSDLAAEMAAALASASIVFKDNKEYSKKLVHGAKVVYQFGRTRRGRYSAGTAESSKFYNSSMYWDEFIWGGAWMYYATGNVTYLNLITQPTMAKHAGAFWGGPYYGVFSWDNKLAGAQLLLSRLRLFLSPGYPYEEILRTFHNQTSIVMCSYLPIFNKFNRTNGGLIELNHGAPQPLQYSVNAAFLATLYSDYLDAADTPGWYCGPNFYSTSVLRDFARSQIDYILGKNPRKMSYVVGFGTKYPRHVHHRGASIPKNKVKYNCKGGWKWRDSKKPNPNTIEGAMVAGPDKRDGYRDVRMNYNYTEPTLAGNAGLVAALVALSGEEEATGKIDKNTIFSAVPPLFPTPPPPPAPWKP | – | – | – | no change | – | –
7 | KORRIGAN1 (KOR1): N324Q (protein) parent chain: MYGRDPWGGPLEINTADSATDDDRSRNLNDLDRAALSRPLDETQQSWLLGPTEQKKKKYVDLGCIIVSRKIFVWTVGTLVAAALLAGFITLIVKTVPRHHPKTPPPDNYTIALHKALKFFNAQKSGKLPKHNNVSWRGNSGLQDGKGETGSFYKDLVGGYYDAGDAIKFNFPMAYAMTMLSWSVIEYSAKYEAAGELTHVKELIKWGTDYFLKTFNSTADSIDDLVSQVGSGNTDDGNTDPNDHYCWMRPEDMDYKRPVTTCNGGCSDLAAEMAAALASASIVFKDNKEYSKKLVHGAKVVYQFGRTRRGRYSAGTAESSKFYNSSMYWDEFIWGGAWMYYATGNVTYLNLITQPTMAKHAGAFWGGPYYGVFSWDNKLAGAQLLLSRLRLFLSPGYPYEEILRTFHNQTSIVMCSYLPIFNKFNRTNGGLIELNHGAPQPLQYSVNAAFLATLYSDYLDAADTPGWYCGPNFYSTSVLRDFARSQIDYILGKNPRKMSYVVGFGTKYPRHVHHRGASIPKNKVKYNCKGGWKWRDSKKPNPNTIEGAMVAGPDKRDGYRDVRMNYNYTEPTLAGNAGLVAALVALSGEEEATGKIDKNTIFSAVPPLFPTPPPPPAPWKP | no change, at least 90 vs at least 90 | no change | decreases, 307 ± 8 vs 374 ± 18 | no change | – | –
8 | KORRIGAN1 (KOR1): N425Q (protein) parent chain: MYGRDPWGGPLEINTADSATDDDRSRNLNDLDRAALSRPLDETQQSWLLGPTEQKKKKYVDLGCIIVSRKIFVWTVGTLVAAALLAGFITLIVKTVPRHHPKTPPPDNYTIALHKALKFFNAQKSGKLPKHNNVSWRGNSGLQDGKGETGSFYKDLVGGYYDAGDAIKFNFPMAYAMTMLSWSVIEYSAKYEAAGELTHVKELIKWGTDYFLKTFNSTADSIDDLVSQVGSGNTDDGNTDPNDHYCWMRPEDMDYKRPVTTCNGGCSDLAAEMAAALASASIVFKDNKEYSKKLVHGAKVVYQFGRTRRGRYSAGTAESSKFYNSSMYWDEFIWGGAWMYYATGNVTYLNLITQPTMAKHAGAFWGGPYYGVFSWDNKLAGAQLLLSRLRLFLSPGYPYEEILRTFHNQTSIVMCSYLPIFNKFNRTNGGLIELNHGAPQPLQYSVNAAFLATLYSDYLDAADTPGWYCGPNFYSTSVLRDFARSQIDYILGKNPRKMSYVVGFGTKYPRHVHHRGASIPKNKVKYNCKGGWKWRDSKKPNPNTIEGAMVAGPDKRDGYRDVRMNYNYTEPTLAGNAGLVAALVALSGEEEATGKIDKNTIFSAVPPLFPTPPPPPAPWKP | decreases, 69 vs at least 90 | no change | no change, 394 ± 34 vs 374 ± 18 | no change | – | –
